From US20070129307A1, “Insulin epitopes for the treatment of type 1 diabetes” (The University of British Columbia, priority 2001, published 2007)

What was measured:
[1] = molecular target: T1, murine MHC class I molecule, H-2Kd (mouse); assay: MHC class I stabilization assay on TAP-deficient RMAS-Kd cells, anti-H-2Kd-FITC, flow cytometry (background without peptide 6.07%)
T1 chain 1: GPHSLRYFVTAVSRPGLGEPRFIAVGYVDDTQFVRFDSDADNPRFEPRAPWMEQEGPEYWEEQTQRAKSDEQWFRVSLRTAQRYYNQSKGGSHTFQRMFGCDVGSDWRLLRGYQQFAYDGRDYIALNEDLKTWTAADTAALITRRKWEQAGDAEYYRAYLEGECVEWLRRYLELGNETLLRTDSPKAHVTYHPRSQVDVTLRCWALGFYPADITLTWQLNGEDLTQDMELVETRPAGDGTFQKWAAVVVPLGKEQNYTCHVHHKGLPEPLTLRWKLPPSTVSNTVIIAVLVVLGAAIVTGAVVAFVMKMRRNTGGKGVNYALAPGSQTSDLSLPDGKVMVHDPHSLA
T1 chain 2: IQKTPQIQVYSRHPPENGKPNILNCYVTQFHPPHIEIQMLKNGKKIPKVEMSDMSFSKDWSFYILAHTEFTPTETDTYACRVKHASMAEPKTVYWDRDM

[2] = molecular target: human MHC class I molecule HLA-A*0201 (human); assay: HLA-A2 stabilization on T2 cells loaded with 50 ug/ml peptide, anti-HLA-A2 (BB7.2) flow cytometry, MFI relative to CMV/A2

## LYLVCGERG (modifications not checked) [INSL]
[1]
  % of RMAS-Kd cells staining positive for surface H-2Kd: 73.7%

## DLMGYIPLV (modifications not checked) [HCV peptide]
[2]
  relative HLA-A2 surface expression (% of CMV/A2 peptide binding): > 80%

## KYNKANVFL (modifications not checked) [NRP-V7]
[1]
  % of RMAS-Kd cells staining positive for surface H-2Kd: 72.7%
